This note sets out measurements from patent CN117412992A (NOVIMMUNE SA, dated 2024).

For experiment [1], the target named is T1, human PD-L1 on cells (hPD-L1-transfected CHO cells; IFNg-induced HT-1080 tumour cells) (human, UniProt Q9NZQ7 19-290).
T1 construct: whole, on cells
The experiment can be described thus: cell-based competition: inhibition of human PD-1-moFc binding to IFNg-induced PD-L1+ CD47+ HT-1080 cells, CellInsight CX5.

Experiment [2] has as its target T2, recombinant human PD-L1 soluble protein, biotinylated (ACROBiosystems) (human, UniProt Q9NZQ7 19-238, biotinylated).
T2 construct: Bought soluble protein; also called 重组人PD-L1; 人PD-L1
As to the kind of experiment: BLI (Table 7) and ELISA (Fig. 1A) on recombinant PD-L1. In general terms: ELISA stands for enzyme-linked immunosorbent assay.

The target in experiment [3] is T3, human CD47 on cells (Raji, Nalm-6, HT-1080 tumour cells; human red blood cells) (human, UniProt Q08722 19-323).
T3 construct: whole, on cells
As to the kind of experiment: flow cytometry on human red blood cells (CD47+, PD-L1-). (Flow cytometry measures light scatter and fluorescence of single cells or particles in a stream.)

Experiment [4] addresses T1, human PD-L1 on cells …. The experiment can be described thus: flow cytometry on IFNg-preactivated PD-L1+ CD47+ HT-1080 cells, co-engagement of both targets.

B1: S79 anti-PD-L1 mAb (antibody, human IgG1, lambda, V domains shown)
VH: not shown
VL: QSALTQPASVSGSPGQSITISCTGTSSDVFRPPLVSWYQQHPGKAPKLMIYFASLRPSGVSNRFSGSKSGNTASLTISGLQAEDEADYYCSSWDHTGDGHVFGGGTKLTVLG
notes: also called S79_Sc3_1G7_VLCL2 aPDL1 IGLV2-23; S79抗PD-L1 mAb
Broadly, the IC50 is the concentration that inhibits the measured activity by half. In turn, B1 gave an IC50 in experiment [1] of 2.52 pM.

B2: K2xS23 CD47xPD-L1 bispecific antibody (bispecific antibody, human IgG1, kappa, lambda)
heavy: not shown
light 1: not shown
light 2: QSALTQPASVSGSPGQSITISCTGTSSDVAKIPLVSWYQQHPGKAPKLMIYFASLRPSGVSNRFSGSKSGNTASLTISGLQAEDEADYYCSSWDNAGDGHVFGGGTKLTVLGQPKAAPSVTLFPPSSEELQANKATLVCLISDFYPGAVTVAWKADSSPVKAGVETTTPSKQSNNKYAASSYLSLTPEQWKSHRSYSCQVTHEGSTVEKTVAPTECS
notes: kappa-lambda body with a common heavy chain; also called K2xS23 bsAb
Regarding B2, the binding result in experiment [2], in experiment [3] and in experiment [4] was “binds” in each case.

B3: S100 anti-PD-L1 mAb (antibody, human IgG1, lambda, V domains shown)
VH: not shown
VL: QSVLTQPPSASGTPGQRVTISCSGSSSNIENKPVNWYQQLPGTAPKLLIYHDTTRPSGVPDRFSGSKSGTSASLAISGLQSEDEADYYCAAWDFATWPATEVFGGGTKLTVLG
notes: bivalent monospecific anti-PD-L1 IgG; also called S100抗PD-L1 mAb
Take B3: the IC50 in experiment [1] was determined as 0.84 pM.
